Results reported in PMC8767016, “The Bacteroidetes Aequorivita sp. and Kaistella jeonii Produce Promiscuous Esterases With PET-Hydrolyzing Activity” (Frontiers in Microbiology, 2022).

Key:
PET30ΔPorC = target: T1, PET30ΔPorC (Kaistella jeonii, UniProt A0A0C1F4U8); assay: pNP release at […] nm, relative activity; format: biochemical; conditions: 30°C
T1 construct: gene OA86_11720; C-terminal PorC (T9SS) sorting domain 300-366 deleted; signal peptide removed; His-tagged, E. coli host; monomer in asymmetric unit

purified protein = substrate: CCCCCC(=O)Oc1ccc([N+](=O)[O-])cc1; assay: purified protein; format: biochemical, Kaistella jeonii; conditions: 30°C, pH 8

| Molecule | pNP release at 405 nm, relative activity (PET30ΔPorC) | Km (purified protein) [µM] | kcat (purified protein) [s⁻¹] |
| --- | --- | --- | --- |
| CCCCCC(=O)Oc1ccc([N+](=O)[O-])cc1 [pNP-C6] | Activity tests confirmed that it was not affected in its activities using pNP-C6 | – | – |
| PET30 (Kaistella jeonii) (protein, signal peptide removed, Met added; C-terminal 6xHis (pET21a), E. coli host, Ni-NTA; PorC (T9SS) domain kept) QCTGATVESLTNPGPYTVATLSEADGVRNGPKYAGSTIYYPTNATPPYASIAIVPGFTAAPSSVQEWGPFYASHGIVAIIIGTNSLYDQPEARALALLDALETIKQENGRATSPLIGKLDVTKLAVSGWSMGGGGAQRAAVLDNTISAVVALCPYLTSPQLNHTVPVLIFSGQSDPTAPPSQHANVHYNTTPGTTNKLLFEVKNGNHSVANSPTGGGGAVGKLALSWLKIYLEKNDCYCSVLATAIVNSTTVSSKISQSYQCNNALGVVDSKTRFNLYPNPTKDFVQVNVREMASYQLSSSTGQIVLKGIVTSSKNQIDLSKLPAGVYYLQINGETIKVIKKQ | – | 300 | 8.9 |
